Holding throughout (assay): SPR; biotinylated phosphopeptides immobilised on streptavidin chip (about 25 RU single, 50 RU tandem motifs); soluble recombinant protein injected; 37°C; HBS-EP; equilibrium binding (Table 4; same-day purification not given)
On the technique in general: Surface plasmon resonance follows binding to a sensor surface in real time, without labels.

Assay [1] concerns the target CD244 ITSM3 phosphopeptide (human).
For assay [2], the target named is CD244 ITSM4 phosphopeptide (human).
Assay [3] deals with CD244 ITSM2 phosphopeptide (human).

The text below walks through data of paper PMC3958483, “Fine Specificity and Molecular Competition in SLAM Family Receptor Signalling” (PLoS ONE, 2014).

Chain of SAP (recombinant full-length human SAP) (O60880 whole entry): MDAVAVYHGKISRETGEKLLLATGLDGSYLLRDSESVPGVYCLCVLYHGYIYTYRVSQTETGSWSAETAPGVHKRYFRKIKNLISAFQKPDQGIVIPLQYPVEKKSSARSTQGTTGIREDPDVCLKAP

In general, Kd refers to the equilibrium constant for the complex coming apart. Turning to “SAP (recombinant full-length human SAP) (from UniProt O60880 1-128) (natural protein)”, the Kd in assay [1] stood at 0.08 µM; in assay [2], 1.9 µM; in assay [3], 0.02 µM.
